Changes are numbered by the printed parent chain. Numbers in names are those of the source.

Substrate in this data set: CC1(C)C[C@H]2C=C(C(=O)O)[C@@H]3COC(=O)[C@]4(CO4)[C@]23C1
As to the kind of experiment: purified protein, by the assay type. To be noted: 30 °C.

B1: wild-type PntM (Streptomyces arenae) (protein)
chain: MTDLPRLPFDNPDIMGIAPQMLALQKEGPIARVGTAGEDAWLVTRYDEVRTLLADRRLRLSNPNPQPSAKSAARAFMVALMAGDDHETEPARHAQMRSLLIPRFSTRRLRLMKTRIEHHVDELLDQLAASAPPVDLHRVLSFRLPTMVVCDLLGVPLADRERFGQWARGTFDQSDNEHSANTFQQVVDYMLELVARKRVEPGDDILSELIAEKDGALSDADIAHLGNAVLLFGYETTIVRIDLGTLLLLRNPVQRAQLAEDPGLAPAAVEEILRLGVGGKGSNALIPRYAHGDITVGETVIRTGDAVMLAIGAANYDDRAFPDGGLFDLTRVRPRSHLAFGHGARHCIGRTLARIELTAVFERLFRRLPDLRLAVPEESLRWQEHRITGGFDEIPVTF
Take B1: under “other: Wild-type, pH 8.0”, the Km was 36 ± 14 µM, the kcat amounted to 0.03 s⁻¹ and the kcat/Km was 833 M⁻¹ s⁻¹.

B2: PntM F232L (Streptomyces arenae; F232L) (protein)
chain: B1 chain with F232L
Take B2: where the note is “other: F232L, pH 8.0”, the Km came out at 12.0 ± 3 µM, the kcat was 0.0015 s⁻¹ and the kcat/Km was found to be 125 M⁻¹ s⁻¹.

B3: PntM M81C-BME (Streptomyces arenae; M81C) (protein)
chain: B1 chain with M81C
Regarding B3, under “other: M81C-BME, pH 8.0”, the Km came to 280 ± 110 µM, the kcat turned out to be 0.00142 s⁻¹ and the kcat/Km is 5 M⁻¹ s⁻¹.

B4: PntM M81C (Streptomyces arenae; M81C) (protein)
chain: B1 chain with M81C
Regarding B4, for the setting “other: M81C, pH 8.0”, the Km stood at 19 ± 3 µM, the kcat turned out to be 0.00153 s⁻¹ and the kcat/Km was determined as 81.7 M⁻¹ s⁻¹.

B5: PntM M77S (Streptomyces arenae; M77S) (protein)
chain: B1 chain with M77S
Consider B5, for which, for the setting “other: M77S, pH 8.0”, the Km came to 19 ± 4 µM, the kcat amounted to 0.000317 s⁻¹ and the kcat/Km stood at 16.7 M⁻¹ s⁻¹.

B6: PntM M81A (Streptomyces arenae; M81A) (protein)
chain: B1 chain with M81A
In the case of B6, the Km (other: M81A, pH 8.0) came out at 37 ± 6 µM.

B7: PntM F232A (Streptomyces arenae; F232A) (protein)
chain: B1 chain with F232A
For the protein B7, under “other: F232A, pH 8.0, n=1”, the Michaelis-Menten constant (Km) stood at 43 ± 5 µM, the kcat turned out to be 0.000583 s⁻¹ and the kcat/Km came to 13.7 M⁻¹ s⁻¹.

For orientation: Km means the concentration of substrate that gives half-maximal velocity. The term kcat denotes the number of substrate molecules converted per active site and unit of time at saturation. In general, kcat/Km refers to the turnover number divided by the Michaelis constant.
